To fix the notation:
B1: glmS ribozyme (parent)
chain: AUAAAAGCGCCAGAACUACAGAAAUGUAGUUGACGAGGAGGAGGUUUAUCGAAUUUUCGGCGGAUGCCUCCAAA

± gives the standard error. For some assays here: Variants at the floor of the assay were thinned out. Bounds are passed on as bounds.

Holding throughout (conditions): with glucosamine-6-phosphate
In series [1] the parent is B1. The series can be described thus: kcat; higher = faster cleavage; RNA array. The method in brief:
(§1)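 E. coli RNA polymerase transcribed barcoded ribozyme variants in situ on sequenced MiSeq chips, which were tracked via a hybridised Cy3 probe at 37 °C. Tiles were imaged over ~14 h after glucosamine-6-phosphate (40 μM to 10 mM) in HEPES/KCl/Mg(OAc)2 buffer was flowed in. Normalised per-tile medians were fit to one- or two-exponential decays for kobs, and kcat and KM came from weighted Michaelis–Menten fits.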

The variants in series [2] derive from B1. The series can be described thus: self-cleavage kobs at 640 uM GlcN6P; higher = faster cleavage; RNA array. The method in brief:
as §1

Variants of B1 are the subject of series [3]. The series can be described thus: self-cleavage kobs at 2500 uM GlcN6P; higher = faster cleavage; RNA array. The method, boiled down: as §1
Variants of B1 are the subject of series [4]. Description: self-cleavage kobs at 10000 uM GlcN6P; higher = faster cleavage; RNA array. The method, boiled down:
as §1

Series [5] covers variants of B1. Description: KM; higher = weaker cofactor use; RNA array. The method in brief:
as §1

Variants of B1 are the subject of series [6]. Description: self-cleavage kobs at 160 uM GlcN6P; higher = faster cleavage; RNA array. The method in brief: as §1
Series [7] covers variants of B1. Description: self-cleavage kobs at 40 uM GlcN6P; higher = faster cleavage; RNA array. The method, boiled down: as §1

For orientation: kcat means the number of substrate molecules converted per active site and unit of time at saturation. Regarding G13U C70G, in the series with glucosamine-6-phosphate [1], the kcat stood at 4.04e-05 ± 3e-06 s⁻¹. Moreover, in the series with glucosamine-6-phosphate [2], the “self-cleavage kobs at 640 uM GlcN6P” value is 4.63e-05 ± 9.7e-06 s⁻¹. Further, the “self-cleavage kobs at 2500 uM GlcN6P” value with glucosamine-6-phosphate [3] turned out to be 3.94e-05 ± 6.3e-06 s⁻¹. In addition, the “self-cleavage kobs at 10000 uM GlcN6P” value in the series with glucosamine-6-phosphate [4] worked out at 3.71e-05 ± 6.7e-06 s⁻¹.
On the same counts, the results for U46A C71A are 0.00108 ± 0.00054 s⁻¹, 0.000259 ± 5.1e-05 s⁻¹, 0.000566 ± 0.00015 s⁻¹ and 0.000724 ± 0.00023 s⁻¹.
What is called KM is the concentration of substrate that gives half-maximal velocity. Turning to G29C G37A, the kcat with glucosamine-6-phosphate [1] amounted to 0.000262 ± 4.4e-05 s⁻¹. Moreover, the KM with glucosamine-6-phosphate [5] was 6200 ± 1700 µM. Besides, the “self-cleavage kobs at 2500 uM GlcN6P” value with glucosamine-6-phosphate [3] stood at 7.11e-05 ± 1.8e-05 s⁻¹. In addition, the “self-cleavage kobs at 10000 uM GlcN6P” value with glucosamine-6-phosphate [4] worked out at 0.000165 ± 3.8e-05 s⁻¹.
Take G32A C61A: in the series with glucosamine-6-phosphate [1], the kcat is less than 1e-05 s⁻¹.
With G9U A33U, in the series with glucosamine-6-phosphate [1], the kcat is less than 1e-05 s⁻¹. For the same variant, the “self-cleavage kobs at 160 uM GlcN6P” value in the series with glucosamine-6-phosphate [6] is less than 1e-05 s⁻¹. Also, the “self-cleavage kobs at 640 uM GlcN6P” value with glucosamine-6-phosphate [2] is less than 1e-05 s⁻¹. For the same variant, in the series with glucosamine-6-phosphate [4], the “self-cleavage kobs at 10000 uM GlcN6P” value is less than 1e-05 s⁻¹.
As for A36G C68G, the kcat with glucosamine-6-phosphate [1] came out at 1.27e-05 ± 2.3e-06 s⁻¹.
As to A6U U56G, in the series with glucosamine-6-phosphate [1], the kcat turned out to be 0.000121 ± 1.2e-05 s⁻¹. For the same variant, in the series with glucosamine-6-phosphate [5], the KM was 1090 ± 430 µM. The “self-cleavage kobs at 640 uM GlcN6P” value with glucosamine-6-phosphate [2] came out at 3.35e-05 ± 1.5e-05 s⁻¹. Moreover, the “self-cleavage kobs at 2500 uM GlcN6P” value with glucosamine-6-phosphate [3] is 9.43e-05 ± 1.2e-05 s⁻¹. For the same variant, in the series with glucosamine-6-phosphate [4], the “self-cleavage kobs at 10000 uM GlcN6P” value came to 0.000104 ± 1.1e-05 s⁻¹.
For U54C C61U, the turnover number (kcat) with glucosamine-6-phosphate [1] came out at 2.59e-05 ± 2.6e-06 s⁻¹.
As for U69C, in the series with glucosamine-6-phosphate [1], the kcat amounted to 0.00361 ± 0.00043 s⁻¹. For the same variant, the KM in the series with glucosamine-6-phosphate [5] turned out to be 201 ± 40 µM. The “self-cleavage kobs at 40 uM GlcN6P” value with glucosamine-6-phosphate [7] turned out to be 0.000631 ± 3.9e-05 s⁻¹. In the series with glucosamine-6-phosphate [6], the “self-cleavage kobs at 160 uM GlcN6P” value was determined as 0.00145 ± 0.00011 s⁻¹. Besides, in the series with glucosamine-6-phosphate [2], the “self-cleavage kobs at 640 uM GlcN6P” value is 0.00268 ± 0.0002 s⁻¹. For the same variant, in the series with glucosamine-6-phosphate [3], the “self-cleavage kobs at 2500 uM GlcN6P” value worked out at 0.00383 ± 0.00039 s⁻¹.
On to U30C C68A, for which the kcat with glucosamine-6-phosphate [1] was 3.05e-05 ± 8e-06 s⁻¹. Further, the “self-cleavage kobs at 2500 uM GlcN6P” value in the series with glucosamine-6-phosphate [3] amounted to 3.62e-05 ± 1.1e-05 s⁻¹.
U45C C68U: the kcat with glucosamine-6-phosphate [1] came out at 0.00315 ± 0.00089 s⁻¹. In the series with glucosamine-6-phosphate [5], the KM worked out at 4960 ± 2100 µM. For the same variant, in the series with glucosamine-6-phosphate [7], the “self-cleavage kobs at 40 uM GlcN6P” value was 3.71e-05 ± 1e-05 s⁻¹. Moreover, in the series with glucosamine-6-phosphate [6], the “self-cleavage kobs at 160 uM GlcN6P” value was 8.24e-05 ± 1.9e-05 s⁻¹. The “self-cleavage kobs at 640 uM GlcN6P” value with glucosamine-6-phosphate [2] was found to be 0.000525 ± 0.00011 s⁻¹. In addition, the “self-cleavage kobs at 2500 uM GlcN6P” value with glucosamine-6-phosphate [3] worked out at 0.000877 ± 0.00019 s⁻¹. Besides, in the series with glucosamine-6-phosphate [4], the “self-cleavage kobs at 10000 uM GlcN6P” value stood at 0.00218 ± 0.00028 s⁻¹.
Turning to U45C C68G, in the series with glucosamine-6-phosphate [1], the kcat amounted to 9.46e-05 ± 8.6e-06 s⁻¹. The KM with glucosamine-6-phosphate [5] was 714 ± 250 µM. Besides, in the series with glucosamine-6-phosphate [2], the “self-cleavage kobs at 640 uM GlcN6P” value was 4.14e-05 ± 1.1e-05 s⁻¹. Besides, in the series with glucosamine-6-phosphate [3], the “self-cleavage kobs at 2500 uM GlcN6P” value came to 8.62e-05 ± 1.5e-05 s⁻¹. In addition, the “self-cleavage kobs at 10000 uM GlcN6P” value with glucosamine-6-phosphate [4] amounted to 8.34e-05 ± 1.2e-05 s⁻¹.
Turning to U57A G59A, the kcat with glucosamine-6-phosphate [1] is 1.13e-05 ± 3e-06 s⁻¹. In addition, in the series with glucosamine-6-phosphate [2], the “self-cleavage kobs at 640 uM GlcN6P” value was less than 1e-05 s⁻¹.
As for U46G U49G, the kcat in the series with glucosamine-6-phosphate [1] worked out at 9.12e-05 ± 1.4e-05 s⁻¹. Also, in the series with glucosamine-6-phosphate [7], the “self-cleavage kobs at 40 uM GlcN6P” value is less than 1e-05 s⁻¹. For the same variant, the “self-cleavage kobs at 2500 uM GlcN6P” value with glucosamine-6-phosphate [3] was 8.04e-05 ± 1.8e-05 s⁻¹. The “self-cleavage kobs at 10000 uM GlcN6P” value in the series with glucosamine-6-phosphate [4] was 7.66e-05 ± 1.7e-05 s⁻¹.
For A14C U31G, in the series with glucosamine-6-phosphate [1], the turnover number (kcat) was 0.0249 ± 0.0019 s⁻¹. Further, the KM with glucosamine-6-phosphate [5] was 2550 ± 250 µM. For the same variant, the “self-cleavage kobs at 40 uM GlcN6P” value with glucosamine-6-phosphate [7] is 0.000384 ± 5.3e-05 s⁻¹. Further, the “self-cleavage kobs at 160 uM GlcN6P” value with glucosamine-6-phosphate [6] turned out to be 0.00145 ± 0.00024 s⁻¹. The “self-cleavage kobs at 640 uM GlcN6P” value in the series with glucosamine-6-phosphate [2] came out at 0.00494 ± 0.00094 s⁻¹. For the same variant, the “self-cleavage kobs at 2500 uM GlcN6P” value with glucosamine-6-phosphate [3] came to 0.0154 ± 0.0047 s⁻¹. Also, the “self-cleavage kobs at 10000 uM GlcN6P” value with glucosamine-6-phosphate [4] came out at 0.0194 ± 0.0031 s⁻¹.
With A15C G43A, in the series with glucosamine-6-phosphate [1], the kcat is less than 1e-05 s⁻¹. The “self-cleavage kobs at 40 uM GlcN6P” value with glucosamine-6-phosphate [7] was less than 1e-05 s⁻¹. In the series with glucosamine-6-phosphate [6], the “self-cleavage kobs at 160 uM GlcN6P” value is less than 1e-05 s⁻¹. The “self-cleavage kobs at 640 uM GlcN6P” value with glucosamine-6-phosphate [2] is less than 1e-05 s⁻¹.
Consider G41A U46A, for which the kcat in the series with glucosamine-6-phosphate [1] was 0.000569 ± 0.0001 s⁻¹. For the same variant, the KM with glucosamine-6-phosphate [5] amounted to 1480 ± 630 µM. The “self-cleavage kobs at 40 uM GlcN6P” value in the series with glucosamine-6-phosphate [7] was determined as 3.02e-05 ± 1.4e-05 s⁻¹. Besides, the “self-cleavage kobs at 160 uM GlcN6P” value with glucosamine-6-phosphate [6] is 4.5e-05 ± 1.2e-05 s⁻¹. Further, the “self-cleavage kobs at 640 uM GlcN6P” value with glucosamine-6-phosphate [2] turned out to be 0.000168 ± 4.6e-05 s⁻¹. Also, the “self-cleavage kobs at 2500 uM GlcN6P” value with glucosamine-6-phosphate [3] was found to be 0.000531 ± 7.8e-05 s⁻¹. Further, the “self-cleavage kobs at 10000 uM GlcN6P” value with glucosamine-6-phosphate [4] is 0.000462 ± 4.9e-05 s⁻¹.
On to U46C U55A, for which the kcat with glucosamine-6-phosphate [1] worked out at 0.00288 ± 0.00026 s⁻¹. For the same variant, the KM with glucosamine-6-phosphate [5] is 1110 ± 150 µM. Also, in the series with glucosamine-6-phosphate [7], the “self-cleavage kobs at 40 uM GlcN6P” value was 9.7e-05 ± 1.5e-05 s⁻¹. Moreover, in the series with glucosamine-6-phosphate [2], the “self-cleavage kobs at 640 uM GlcN6P” value stood at 0.0011 ± 0.0002 s⁻¹. In addition, the “self-cleavage kobs at 2500 uM GlcN6P” value in the series with glucosamine-6-phosphate [3] is 0.00248 ± 0.00076 s⁻¹. Further, the “self-cleavage kobs at 10000 uM GlcN6P” value with glucosamine-6-phosphate [4] amounted to 0.00247 ± 0.00041 s⁻¹.

The values above are taken from the supplement of paper PMC7125110.
